Laboratory results taken from patent US20230348630A1 (BEIJING MABWORKS BIOTECH, published 2023).
Read-outs that look alike come from different tables or passages of the source.

Legend:
[1] = target: T1, BCMA-his protein (Cat #: BCA-H522y, ACRO) (human, UniProt Q02223 1-54); assay: SPR (BIAcore 8K), protocol of Example 5
T1 construct: Bought recombinant protein; the construct is most likely only a soluble part of it; also called BCMA protein; human BCMA
T1 sequence: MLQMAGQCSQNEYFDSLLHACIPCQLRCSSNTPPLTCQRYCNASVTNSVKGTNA
Experimental: (§1) Following the protocols in Example 5 and Example 10, the bispecific antibodies of the disclosure were tested for their binding affinity to CD3D&E and human BCMA.

[2] = target: T2, human BCMA on HEK293A/human BCMA cells (human, UniProt Q02223 1-184); assay: flow cytometry on HEK293A/human BCMA cells
T2 sequence: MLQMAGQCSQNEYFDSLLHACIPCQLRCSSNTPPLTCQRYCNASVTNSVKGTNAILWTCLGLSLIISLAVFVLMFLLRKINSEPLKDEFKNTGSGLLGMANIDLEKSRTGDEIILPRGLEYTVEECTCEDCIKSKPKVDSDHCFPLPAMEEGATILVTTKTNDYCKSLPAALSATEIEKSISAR
Experimental: (§2) The anti-BCMA antibody's binding capability to cell surface BCMAs was tested by FACS. Briefly, HEK293A/human BCMA cells, HEK293A/monkey BCMA cells and HEK293A/mouse BCMA cells, as generated in Example 1, were collected, digested with trypsin, and subjected to centrifugation at 300 g for 5 min. The cells were suspended in PBS, and subjected to centrifugation again. The cells were re-suspended in PBS with 2% FBS at the cell density at 4×10⁶/ml, and 50 μl cells were seeded onto a U-bottom plate. […] The plate was washed with 2% FBS-PBS for three times, added with 50 μl PE-labeled goat-anti-human IgG (H+L) (1: 500), and incubated at room temperature for 45 min. The plate was washed with 2% FBS-PBS again for three times, and added with 150 μl 2% FBS-PBS to suspend the cells. The plate was measured for cell fluorescence using a cytometry, and the data was processed with FlowJo and analyzed with GraphPad.
(§3) Following the protocol of Example 6, the bispecific antibodies of the disclosure were tested for their binding capability to the HEK293A/human BCMA cells, HEK293A/monkey BCMA cells, and HEK293A/mouse BCMA cells as generated in Example 1.

[3] = target: T3, mouse BCMA on HEK293A/mouse BCMA cells (mouse, UniProt O88472 1-185); assay: flow cytometry on HEK293A/mouse BCMA cells [continued) E]
T3 sequence: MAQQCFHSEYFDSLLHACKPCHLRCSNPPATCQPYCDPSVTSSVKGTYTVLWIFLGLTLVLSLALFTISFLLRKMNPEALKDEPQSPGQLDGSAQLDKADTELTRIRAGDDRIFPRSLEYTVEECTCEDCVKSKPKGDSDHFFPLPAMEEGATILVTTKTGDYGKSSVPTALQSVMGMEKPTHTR
Experimental: as §2, §3

[4] = target: T4, CD3 on Jurkat cells (UniProt P04234 22-171; P07766 23-207); assay: flow cytometry on Jurkat cells
T4 construct: whole, on cells
T4 sequence (P04234 22-171, chain 1 of 2): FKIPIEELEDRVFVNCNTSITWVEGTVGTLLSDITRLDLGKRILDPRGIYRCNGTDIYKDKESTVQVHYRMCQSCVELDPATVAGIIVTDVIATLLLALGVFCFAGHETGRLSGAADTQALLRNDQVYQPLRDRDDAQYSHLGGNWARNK
T4 sequence (P07766 23-207, chain 2 of 2): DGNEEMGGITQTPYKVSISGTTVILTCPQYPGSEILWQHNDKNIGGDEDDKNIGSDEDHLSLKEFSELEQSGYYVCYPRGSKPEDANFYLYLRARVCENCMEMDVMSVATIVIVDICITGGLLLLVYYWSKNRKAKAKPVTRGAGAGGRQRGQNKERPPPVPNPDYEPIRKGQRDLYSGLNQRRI
Experimental: (§4) Jurkat cells were collected, centrifuged at 300 g for 5 min, and suspended in PBS. After another centrifugation, the cells were suspended in 2% FBS-PBS at the cell density of 3×10⁶/ml, and […] were plated onto a U-bottom plate. The plate was added with 50 μl serially diluted anti-CD3 antibodies of the disclosure in 2% FBS-PBS (4-fold dilution, starting at 20 μg/ml), and incubated at room temperature for 1 h. The plate was washed with 2% FBS-PBS for three times, added with 50 μl PE-labeled goat-anti-human IgG (H+L) (1: 500), and incubated at room temperature for 45 min. The plate was washed with 2% FBS-PBS again for three times, and added with 150 μl 2% FBS-PBS to suspend the cells. The plate was measured for cell fluorescence using a cytometry, and the data was processed with FlowJo and analyzed with GraphPad.
Following the protocol of Example 11, the bispecific antibodies of the disclosure were tested for their binding capability to Jurkat cells.

[5] = target: T5, CD3D&E protein (Cat #: CT038-H2508H, Sino Biological) (human, UniProt P04234 22-105; P07766 23-126); assay: ELISA, coated CD3D&E
T5 construct: Bought complex of the delta and epsilon chains; also called CD3D&E complex; human CD3D&E complex
T5 sequence (P04234 22-105, form in doubt, chain 1 of 2): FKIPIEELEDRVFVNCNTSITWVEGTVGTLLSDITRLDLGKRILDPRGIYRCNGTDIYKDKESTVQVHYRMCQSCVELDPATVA
T5 sequence (P07766 23-126, form in doubt, chain 2 of 2): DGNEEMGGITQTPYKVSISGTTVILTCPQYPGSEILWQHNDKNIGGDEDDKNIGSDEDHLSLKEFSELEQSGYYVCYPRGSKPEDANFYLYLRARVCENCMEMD
Experimental: (§5) The purified bispecific antibodies were tested for their binding capability to recombinant human CD3 and human BCMA proteins by ELISA, following the protocols in Example 4 and Example 9.

[6] = target: T5, CD3D&E protein (Cat #: CT038-H2508H, …); assay: SPR (BIAcore 8K), protocol of Example 10
Experimental: as §1

[7] = target: monkey BCMA on HEK293A/monkey BCMA cells (monkey, UniProt Q02223 1-184 (human entry)); assay: flow cytometry on HEK293A/monkey BCMA cells
Sequence of monkey BCMA on HEK293A/monkey BCMA cells (Q02223 other isoform, or with tags, fused parts or gaps): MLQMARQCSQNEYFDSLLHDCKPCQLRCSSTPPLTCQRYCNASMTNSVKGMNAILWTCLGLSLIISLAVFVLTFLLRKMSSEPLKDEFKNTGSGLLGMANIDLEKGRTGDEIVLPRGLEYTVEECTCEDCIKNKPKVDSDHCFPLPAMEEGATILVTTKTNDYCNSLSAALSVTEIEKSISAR
Experimental: as §2, §3

[8] = target: T1, BCMA-his protein (Cat #: BCA-H522y, …); assay: ELISA, coated BCMA protein
Experimental: Briefly, an ELISA plate was coated with 100 μl 1 μg/ml BCMA protein (Cat #: BCA-H522y, ACRO) in PBS overnight at 4° C. Then, the plate was blocked with 250 μl PBST with 4% skimmed milk at room temperature for 1 h. […] The negative control well was added with PBST instead of the antibody. The plate was washed with PBST for three times, added with 100 μl HRP conjugated goat anti-human IgG (1:7000, Cat #: 31413, thermofisher), and incubated at room temperature for 1 h. The plate was washed again with PBST for four times, added with 100 μl freshly prepared TMB (Cat #: 555214, BD, USA), and left still for color development, which was terminated with 50 μl 10% H₂SO₄. The absorbance was read at 450 nm, and the data was processed and analyzed using GraphPad.
as §5

[9] = target: T5, CD3D&E protein (Cat #: CT038-H2508H, …); assay: SPR (BIAcore 8K), antibody captured by anti-human Fc, CD3D&E as analyte
Experimental: Briefly, the mouse anti-human Fc antibodies were coupled to a CM5 biosensor chip. The anti-CD3 antibodies of the disclosure in the HBS-EP buffer (Cat #: BR-1006-69, GE Life Sciences) at the concentration of 1 μg/ml was flowed through the chip, where about 100 RU of the antibodies were captured by the mouse anti-human Fc antibodies. Serially diluted CD3D&E molecules (Cat #: CT038-H2508H, Sino Biological) in the HBS-EP buffer (Cat #: BR-1006-69, GE Life Sciences) (2-fold dilution starting at 20 μg/ml) were respectively flowed through the chip. Chip regeneration was performed with 3 M MgCl₂.

[10] = target: T5, CD3D&E protein (Cat #: CT038-H2508H, …); assay: ELISA, coated CD3D&E; remark: listed apart in the source
[11] = target: T6, CD3E protein (Cat #: 10977-H08S, Sino Biological) (UniProt P07766 23-126); assay: SPR (BIAcore 8K), CD3E coupled to the chip, antibody as analyte
T6 construct: also called CD3ε
T6 sequence (P07766 23-126 limits assumed, stated change not applied): as the sequence (P07766 23-126, form in doubt, chain 2 of 2) above
Experimental: For the test regarding binding affinity to CD3E (Cat #: 10977-H08S, Sino Biological), the CD3E molecules were coupled to a CMS biosensor chip, where about 200 RU of the molecules bound to the chip. The anti-CD3 antibodies of the disclosure diluted with the HBS-EP buffer (Cat #: BR-1006-69, GE Life Sciences) at 120 μg/ml were respectively flowed through the chip. Chip regeneration was performed with pH1.5 Gly-HCl.

[12] = target: T4, CD3 on Jurkat cells; assay: flow cytometry on Jurkat cells; remark: listed apart in the source
Experimental: as §4

B1: anti-CD3/BCMA bispecific antibody MBS305-M-KIH (bispecific antibody, human IgG1, kappa, L234A L235A, N297A)
heavy 1: QVQLVQSGAEVKKPGASVKVSCKASGYTFTNHIIHWVRQAPGQGLEWMGYINPYPGYHGYNDKFSGRATMTSDTSTSTVYMELSSLRSEDTAVYYCARDGYYRDQDVLDYWGQGTLVTVSSASTKGPSVFPLAPSSKSTSGGTAALGCLVKDYFPEPVTVSWNSGALTSGVHTFPAVLQSSGLYSLSSVVTVPSSSLGTQTYICNVNHKPSNTKVDKKVEPKSCDKTHTCPPCPAPEAAGGPSVFLFPPKPKDTLMISRTPEVTCVVVDVSHEDPEVKFNWYVDGVEVHNAKTKPREEQYASTYRVVSVLTVLHQDWLNGKEYKCKVSNKALPAPIEKTISKAKGQPREPQVYTLPPSREEMTKNQVSLSCAVKGFYPSDIAVEWESNGQPENNYKTTPPVLDSDGSFFLVSKLTVDKSRWQQGNVFSCSVMHEALHNHYTQKSLSLSPGK
light 1: not shown
heavy 2: QVQLVQSGAEVKKPGASVKVSCKASGYTFTNHIIHWVRQAPGQGLEWMGYINPYPGYHGYNDKFSGRATMTSDTSTSTVYMELSSLRSEDTAVYYCARDGYYRDQDVLDYWGQGTLVTVSSGGGGSGGGGSGGGGSGGGGSDIQMTQSPSSLSASVGDRVTITCKASQDISQYLNWYQQKPGKAPKLLIYYTSGLHPGVPSRFSGSGSGTDFTFTISSLEPEDEATYYCQQGYALPWTFGQGTKLTAKRGGGGSGGGGSGGGGSEVQLVESGGGLVQPGRSLRLSCAASGFTFDSYSMHWVRQAPGKGLEWVSGISWNSGSLGYADSVKGRFTISRDNAKKSLYLQMNSLRAEDTALYYCAKDRSGYGHYYYGMDVWGQGTTVTVASASTKGPSVFPLAPSSKSTSGGTAALGCLVKDYFPEPVTVSWNSGALTSGVHTFPAVLQSSGLYSLSSVVTVPSSSLGTQTYICNVNHKPSNTKVDKKVEPKSCDKTHTCPPCPAPEAAGGPSVFLFPPKPKDTLMISRTPEVTCVVVDVSHEDPEVKFNWYVDGVEVHNAKTKPREEQYASTYRVVSVLTVLHQDWLNGKEYKCKVSNKALPAPIEKTISKAKGQPREPQVYTLPPSREEMTKNQVSLWCLVKGFYPSDIAVEWESNGQPENNYKTTPPVLDSDGSFFLYSKLTVDKSRWQQGNVFSCSVMHEALHNHYTQKSLSLSPGK
light 2: not shown
Kd [1]: 0.105 nM
EC50 [2]: 0.199 µg/mL
binding result [3]: no binding (tested: about 30000 ng/ml (LOG10 about 4.5))
EC50 [4]: 0.00106 µg/mL
EC50 (read off the curve) [4]: ~1 µg/mL
EC50 [5]: 0.089 µg/mL
Kd [6]: 37.9 nM
EC50 [7]: 0.23 µg/mL
EC50 [8]: 0.0137 µg/mL

B2: anti-CD3D&E antibody D1E9, full-length human IgG1 (L234A/L235A/N297A)/kappa (antibody, V domains shown)
VH: EVQLVESGGGLVQPGRSLRLSCAASGFTFDDFAMHWVRQAPGKGLEWVSGITWNSGSVGYADSVKGRFTISRDNAKKSLYLQMNSLRAEDTALYYCAKDRSGYGHYYYGMDVWGQGTTVTVAS
VL: EIVMTQSPATLSVSPGERATLSCRASTSVSHNVAWYQQKPGQAPRLLIYGASTKVTGIPARFSGSGSGTEFTLTISSLQSEDFAVYYCQHYINWPLTFGGGTKVEIKR
Kd [9]: 120 nM
EC50 [10]: 0.0879 µg/mL
binding result [11]: no binding (tested: 120 µg/ml)
EC50 [12]: 0.0837 µg/mL

B3: anti-CD3D&E antibody D12A4, full-length human IgG1 (L234A/L235A/N297A)/kappa (antibody, V domains shown)
VH: EVQLVESGGGLVQPGRSLRLSCAASGFTFGDYAMHWVRQAPGKGLEWVSGISWNHGHIGYADSVKGRFTISRDNAKKSLYLQMNSLRAEDTALYYCAKDNSGYGHYYYGMDVWGQGTTVTVAS
VL: EIVMTQSPATLSVSPGERATLSCRASRSVSRNLAWYQQKPGQAPRLLIYGASTKPTGIPARFSGSGSGTEFTLTISSLQSEDFAVYYCQHYTNWPLRFGGGTKVEIKR
Kd [9]: 357 nM
EC50 [10]: 0.0226 µg/mL
binding result [11]: no binding (tested: 120 µg/ml)
EC50 [12]: 0.11 µg/mL
